Measured values taken from patent US9957295B2, “Peptides inhibiting cold-inducible RNA binding protein activity” (The Feinstein Institute for Medical Research, priority 2013, dated 2018).

Key:
THP-1 cells = assay: TNF-α release from differentiated THP-1 cells stimulated with recombinant proteins; assay type: cell-based, human; settings: 0.3 μg/ml each protein, 8 h, ELISA
Protocol: As with the murine model, the stimulation of TNF-α, release by rCIRP in a human model was studied. […] These experiments were conducted by incubating differentiated human THP-1 cells with rhCIRP or rmCIRP at the indicated concentrations for 4 h. *P<0.05 vs. no CIRP. Similarly, human PBMC were incubated with the indicated concentrations of rhCIRP for 8 h. *P<0.05 vs. no rhCIRP. Thus, stimulation of cytokine release by CIRP was not attributable to LPS contamination. Furthermore, CIRP-induced cytokine activation was conserved between rodents and humans.
rmCIRP induced TNF-α and HMGB1 release in macrophages (FIGS. 10a, b and c). It was reported that HMGB1 can also stimulate TNF-α release (Andersson, U., et al. High mobility group 1 protein (HMG-1) stimulates proinflammatory cytokine synthesis in human monocytes. J. Exp. Med. 192, 565-570 (2000)). The relationship between CIRP and HMGB1 on stimulating TNF-α release was analyzed by applying respective neutralizing antibodies. […] After 4 h, TNF-α levels in conditioned medium (CM) were assayed by ELISA. Data are mean±s.e.m. from three independent experiments. *P<0.05 vs. rmCIRP+ control IgG. In FIG. 16D, RAW 264.7 cells were pre-incubated with rabbit control IgG or anti-CIRP antibodies at indicated dilutions of 1 mg/ml for 20 min before adding 1.0 μg/ml rmCIRP. After 4 h, TNF-α levels in CM were assayed by ELISA. Data are mean±s.e.m. from three independent experiments. *P<0.05 vs. rmCIRP+ control IgG. THP-1 cells were incubated with 4 μg/ml of anti-CIRP antibodies, anti-HMGB1 antibodies, or non-immunized control IgG for 1 h prior to adding rmCIRP (0.3 μg/ml), rmHMGB1 (0.3 μg/ml), or rmCIRP/rmHMGB1 (0.3 μg/ml, 0.3 μg/ml) for 8 h. *P<0.05 vs. rmCIRP; #P<0.05 vs. rmHMGB1. […] Furthermore, rmCIRP, rmHMGB1, and rmCIRP plus rmHMGB1 induced TNF-α levels of 0.8, 0.6, and 1.6 ng/ml, respectively. […] TNF-α levels in all collected CM were assayed by ELISA. Data are mean±s.e.m. from three or four independent experiments.
Murine macrophage-like RAW 264.7 cells and human monocyte THP-1 cells were obtained from ATCC (Manassas, Va.). […]

[1] = tested on: wild-type and TLR4 knockout mice; assay: rmCIRP injection into wild-type and Tlr4−/− mice; assay type: in vivo, mouse; settings: 1 or 5 mg/kg BW, after 4 h
Protocol: Tlr4^−/− mice were incubated with 1.5 μg/ml rmCIRP for 4 h. TNF-α levels in conditioned medium were assayed by ELISA. Data are mean±s.e.m. from three independent experiments. *P<0.05 vs. WT. In comparing the difference among wild-type and knockout mice targeting each receptor in response to rmCIRP, only TLR4-deficient macrophages lost the response for TNF-α induction, while RAGE- and TLR2-deficient macrophages maintained similar responses to wild-type macrophages (FIG. 13A). To confirm the requirement of TLR4 in mediating CIRP activity, wild-type and TLR4 knockout mice were injected with rmCIRP (1 or 5 mg/kg BW) or normal saline (vehicle). After 4 h, serum samples were collected and assayed for TNF-α and IL-6 by ELISA and HMGB1 by Western blotting as well as serum AST and ALT. Data are mean±s.e.m., n=6-9/group, *P<0.05 vs. WT no rmCIRP; #P<0.05 vs. WT with rmCIRP at 5 mg/kg. […] In contrast, these deleterious effects of rmCIRP on the wild-type mice were diminished in Tlr4^−/− mice.

B1: rmCIRP: recombinant murine (rat sequence) His-tagged CIRP expressed in E. coli (protein)
chain: MASDEGKLFVGGLSFDTNEQALEQVFSKYGQISEVVVVKDRETQRSRGFGFVTFENIDDAKDAMMAMNGKSVDGRQIRVDQAGKSSDNRSRGYRGGSAGGRGFFRGGRSRGRGFSRGGGDRGYGGGRFESRSGGYGGSRDYYASRSQGGSYGYRSSGGSYRDSYDSYATHNEHHHHHH
For B1, the “induced TNF-α levels” value (THP-1 cells) was 0.8 ng/mL, the “deleterious effects in Tlr4−/− mice” value [1] was “diminished” and the “serum cytokines and organ injury markers in wild-type mice” value [1] was “increase of serum proinflammatory cytokines (TNF-α, IL-6, and HMGB1) and organ injury markers (AST and ALT) in a dose-dependent manner”.
